Measurements: patent US20250289896A1 (ANALYTICAL BIOSCIENCES SHANGHAI, published 2025)
Substitutions are numbered along the chain they refer to. In names and notes the source's numbering stands.

T1: mCCR8 (UniProt P56484 1-353, limits assumed)
T1 construct: whole, on cells; also called 293T-mCCR8
T1 sequence (looked up): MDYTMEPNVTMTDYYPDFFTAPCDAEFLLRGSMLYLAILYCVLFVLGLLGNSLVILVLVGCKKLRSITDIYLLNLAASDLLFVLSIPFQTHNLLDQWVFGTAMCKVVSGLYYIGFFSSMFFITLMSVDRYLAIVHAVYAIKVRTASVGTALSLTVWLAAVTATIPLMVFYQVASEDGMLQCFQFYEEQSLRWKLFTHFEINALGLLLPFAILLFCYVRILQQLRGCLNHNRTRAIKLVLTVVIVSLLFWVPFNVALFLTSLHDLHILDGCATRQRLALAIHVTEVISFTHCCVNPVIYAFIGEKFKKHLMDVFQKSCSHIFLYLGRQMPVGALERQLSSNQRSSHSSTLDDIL

B1: ABC084.AF (antibody, human IgG1, kappa, V domains shown)
VH: EVQLLESGGGLVQPGGSLRLSCAASGFTFSSYGMHWVRQAPGKGLEWVSAINWNGGSTGYADSVKGRFTISRDNSKNTLYLQMNSLRAEDTAVYYCARGHHSGYDGRFFDYWGQGTLVTVSS
VL: QSVLTQPPSVSGAPGQRVTISCTGSSSNIGAGYNVHWYQQLPGTAPKLLIYTNNRRPSGVPDRFSGSKSGTSASLAISGLRSEDEADYYCAAWDASLSGWVFGGGTKLTVLR
notes: Prior art antibody (PCT/EP2021/067504)
B2: ABC048-B1.hu11.IgG1.SDIE (antibody, V domains shown)
VH: EVQLVESGGGLVQPGGSLKLSCAASGFTFNTYAMNWVRQASGKGLEWVARIRSKSNNYATYYADSVKDRFTISRDDSKNTLYLQMNSLKTEDTAVYYCVREVRRDYALDQWGQGTMVTVSS
VL: DIVMTQSPLSLPVTPGEPASISCRSSKSLLHSNGNTYLYWFLQKPGQSPQLLIYRMSNLASGVPDRFSGSGSGTDFTLKISRVEAEDVGVYYCMQHVEYPFTFGGGTKLEIKR
notes: IgG1 with SDIE mutations, by its name; also called ABC048-B1.hull.IgG1.SDIE
B3: ABC025-H2G.SDIE (antibody, human IgG1, kappa)
heavy: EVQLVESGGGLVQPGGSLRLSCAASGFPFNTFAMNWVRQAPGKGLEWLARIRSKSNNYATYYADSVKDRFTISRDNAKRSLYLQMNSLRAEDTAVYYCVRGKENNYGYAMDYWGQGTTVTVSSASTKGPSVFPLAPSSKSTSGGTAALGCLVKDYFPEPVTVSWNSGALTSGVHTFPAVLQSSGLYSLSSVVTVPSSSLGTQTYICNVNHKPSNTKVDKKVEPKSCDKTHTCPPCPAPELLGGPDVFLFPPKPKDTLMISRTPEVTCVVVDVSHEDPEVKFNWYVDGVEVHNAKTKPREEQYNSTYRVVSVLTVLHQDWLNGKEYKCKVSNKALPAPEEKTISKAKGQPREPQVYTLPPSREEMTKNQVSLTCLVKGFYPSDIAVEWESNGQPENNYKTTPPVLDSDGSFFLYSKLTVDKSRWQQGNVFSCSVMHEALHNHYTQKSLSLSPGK
light: DIVMTQSPLSLPVTPGEPASISCRSSQSLLHSNANTYLYWFLQKPGQSPQLLIYRMSNLASGVPDRFSGSGSGTDFTLKISRVEAEDVGVYYCMQHLEYPFTFGQGTKLEIKRTVAAPSVFIFPPSDEQLKSGTASVVCLLNNFYPREAKVQWKVDNALQSGNSQESVTEQDSKDSTYSLSSTLTLSKADYEKHKVYACEVTHQGLSSPVTKSFNRGEC
notes: Humanized clone of ABC080.chH2.SDIE; Fc with SDIE mutation
B4: ABC138-H2.hu13.IgG1.SDIE (antibody, V domains shown)
VH: EVQLVESGGGLVQPGGSLRLSCAASGFPFNTFAMNWVRQAPGKGLEWLARIRSKSNNYATYYADSVKDRFTISRDNAKRSLYLQMNSLRAEDTAVYYCVRGKENNYGYAMDYWGQGTTVTVSS
VL: B2 VL with G34A
notes: Developed by mutagenesis in the light chain CDRs of ABC025.H2G.SDIE; IgG1 with SDIE mutations; also called ABC0138.H2.Hu13.SDIE
B5: ABC080.chH2.SDIE (antibody)
heavy: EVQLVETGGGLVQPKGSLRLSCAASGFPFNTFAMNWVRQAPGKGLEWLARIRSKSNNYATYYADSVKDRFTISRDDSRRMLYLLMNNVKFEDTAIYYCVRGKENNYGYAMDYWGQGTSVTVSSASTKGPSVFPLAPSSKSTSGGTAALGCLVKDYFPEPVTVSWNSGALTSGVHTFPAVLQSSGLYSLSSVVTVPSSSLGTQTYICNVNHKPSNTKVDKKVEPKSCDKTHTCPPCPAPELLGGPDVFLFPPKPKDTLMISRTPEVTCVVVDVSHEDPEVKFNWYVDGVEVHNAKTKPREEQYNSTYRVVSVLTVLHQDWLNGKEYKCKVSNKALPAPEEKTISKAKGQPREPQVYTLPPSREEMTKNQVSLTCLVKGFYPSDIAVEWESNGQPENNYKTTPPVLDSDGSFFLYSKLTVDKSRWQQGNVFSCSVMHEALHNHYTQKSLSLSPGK
light: DIVMTQAAPSVPVTPGESVSISCRSSQSLLHSNGNTYLYWFLQRPGQSPQLLIYRMSNLASGVPDRFSGSGSGTAFTLRISRVEAEDVGVYYCMQHLEYPFTFGIGTKLELKRTVAAPSVFIFPPSDEQLKSGTASVVCLLNNFYPREAKVQWKVDNALQSGNSQESVTEQDSKDSTYSLSSTLTLSKADYEKHKVYACEVTHQGLSSPVTKSFNRGEC
notes: Chimeric antibody with SDIE Fc; ABC025.H2G.SDIE is its humanized clone
B6: ABC078.AF (antibody, human IgG1, kappa, V domains shown)
VH: QVQLVQSGAEVKKPGASVKVSCKASGYTFTDSEMHWVRQATGQGLEWMGAIQPETGGTAYNQKFKARVTMTRDTSISTAYMELSSLRSEDTAVYYCARRRRNFDYWGQGTLVTVSS
VL: DIVMTQTPLSLSVTPGQPASISCRSSQSLFHSSGNTYLHWYLQKPGQPPQLLIYKVSNRFSGVPDRFSGSGSGTDFTLKISRVEAEDVGVYYCSQSTHVPFTFGQGTKLEIKR
notes: Prior art antibody (PCT/US2021/023430); also called BMS-986340
B7: ABC078 (antibody, V domains shown)
VH: B6 VH
VL: B6 VL

Key:
[1] = target: T2, Human CCR8 (C-C chemokine receptor type 8) (human, UniProt P51685 1-355); experiment: flow cytometry, human PBMC-derived activated Tregs
T2 construct: overexpressed on HEK293T (293T-hCCR8), Jurkat-hCCR8 and CHEM1-CCR8 cells; also called hCCR8
Procedure: (§1) 2.3 Cell-based binding assays for human PBMC-derived activated Tregs Binding specificity of the anti-CCR8 antibodies was tested by FACS using human PBMC-derived activated Tregs. In summary, Tregs were expanded and activated following the manufacturer's protocol (130-095-345, Miltenyi). Briefly, cryopreserved 7-day expanded human PBMC-derived Tregs (SailyBio) were thawed and rested overnight. They were then restimulated with CD3/CD28 MACSiBeads in the presence of rhIL-2 for 24 hours. […] Afterwards, the activated Tregs were plated at 20K/well in 96-well plates, spun down and the supernatant was removed. Cell pellets were then resuspended and incubated with 100 μl of various concentrations of mAbs or a human lgG1 isotype control antibody (biolegend #403501) at 37° C. for 30 min. The final concentrations of antibodies were indicated on x-axis in each figure. The cells were washed three times with FACS buffer (PBS containing 0.5 mg/ml BSA and 1 mM EDTA). PE-labeled goat-anti-human IgG (Invitrogen) diluted in FACS buffer was added to cell pellets as secondary antibodies at a concentration of 3 μg/ml, and the samples were incubated at 4° C. for 30 min. Samples were washed three times with FACS buffer and analyzed using a Cytek Aurora cytometer. Data were analyzed with GraphPad Prism 8.0 software to determine EC50 values.

[2] = target: T2, Human CCR8 (C-C chemokine receptor type …); experiment: flow cytometry, human PBMC-derived activated Tregs; remark: listed apart in the source
Procedure: as §1
Especially, FIG. 6 and Table 6 show the titration of anti-CCR8 mAbs ABC138-H2.hu13.IgG1.SDIE, ABC025-H2G.SDIE and ABC080.chH2.SDIE to human PBMC-derived activated Treg cells. ABC138-H2.hu13.IgG1.SDIE was developed by mutagenesis in the light chain CDRs of ABC025.H2G.SDIE, which is the humanized clone of ABC080.chH2.SDIE.

[3] = target: T3, cynomolgus macaque CCR8 (cynomolgus macaque, UniProt G7NYJ2 1-355); experiment: cell-based or functional assay
[4] = target: T2, Human CCR8 (C-C chemokine receptor type …); experiment: cell-based or functional assay
[5] = target: T2, Human CCR8 (C-C chemokine receptor type …); experiment: cell-based or functional assay; remark: listed apart in the source
[6] = target: T1, mCCR8; experiment: flow cytometry, 293T cells with mCCR8
Procedure: (§2) Binding specificity of the anti-CCR8 antibodies (mAbs) was tested by FACS using several cell lines. […] The binding titration of the anti-CCR8 antibodies to CCR8 transfectants was performed by serial dilution of antibodies. The diluted antibody (50 μl) in flow cytometry buffer (PBS, 0.5% BSA, 1 mM EDTA) was incubated with cells (50 μl) at a concentration of 2 million cells/ml on ice for 30 min. After two washes with flow cytometry buffer, bound antibody was detected with Alexa647-labeled F(ab′)2 fragment goat anti-human IgG (Jackson ImmunoResearch #709-606-149) (1:500 dilution) for 20 minutes on ice. The fluorescence was measured on a Cytek Aurora cytometer, after two washes with flow cytometry buffer. The data were analyzed with GraphPad Prism 8.0 software to determine EC50 values.

[7] = target: T2, Human CCR8 (C-C chemokine receptor type …); experiment: flow cytometry, Hut78 cells (endogenous human CCR8)
Procedure: as §2

[8] = target: T2, Human CCR8 (C-C chemokine receptor type …); experiment: flow cytometry, 293T cells overexpressing human CCR8
Procedure: as §2

[9] = target: T3, cynomolgus macaque CCR8; experiment: flow cytometry, 293T cells overexpressing cynomolgus CCR8
Procedure: as §2

T3 sequence (G7NYJ2 entry or part of it): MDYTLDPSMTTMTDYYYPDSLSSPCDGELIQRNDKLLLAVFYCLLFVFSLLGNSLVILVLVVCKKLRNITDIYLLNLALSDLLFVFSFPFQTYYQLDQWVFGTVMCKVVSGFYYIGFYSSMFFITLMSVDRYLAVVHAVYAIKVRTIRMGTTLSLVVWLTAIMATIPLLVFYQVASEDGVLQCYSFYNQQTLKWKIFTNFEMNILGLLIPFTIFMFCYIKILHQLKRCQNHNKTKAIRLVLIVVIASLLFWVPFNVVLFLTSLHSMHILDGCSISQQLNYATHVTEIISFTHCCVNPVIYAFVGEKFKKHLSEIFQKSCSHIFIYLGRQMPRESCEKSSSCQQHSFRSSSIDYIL
T2 sequence (P51685 whole entry): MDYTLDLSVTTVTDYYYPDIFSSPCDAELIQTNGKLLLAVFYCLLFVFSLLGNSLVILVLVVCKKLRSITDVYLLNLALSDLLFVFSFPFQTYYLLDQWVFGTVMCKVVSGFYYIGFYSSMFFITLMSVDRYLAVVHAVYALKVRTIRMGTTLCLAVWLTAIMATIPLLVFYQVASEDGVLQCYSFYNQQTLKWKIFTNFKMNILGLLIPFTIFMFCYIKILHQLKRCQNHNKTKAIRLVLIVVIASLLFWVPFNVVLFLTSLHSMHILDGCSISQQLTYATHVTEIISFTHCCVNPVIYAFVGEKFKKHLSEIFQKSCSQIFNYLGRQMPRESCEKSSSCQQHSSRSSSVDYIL

Row | Binder | EC50 [1] [nM] | EC50 [2] [nM] | ADCC killing of Jurkat-cynoCCR8 cells, IC50 (pM) [3] [pM] | ADCC killing of Jurkat-hCCR8 cells, IC50 (pM) [4] [pM] | ADCC killing of Hut78 cells, IC50 (pM) [5] [pM] | binding result [6] | EC50 [7] [nM] | EC50 [8] [nM] | binding result [9]
1 | B1 | 33.8 |  |  |  |  |  |  |  | 
2 | B2 | 0.521 |  |  |  |  |  |  |  | 
3 | B3 | 1.78 | 0.38 |  |  |  |  |  |  | 
4 | B4 | 0.579 | 0.105 | 62.9 | 2.09 | 0.652 | no binding | 0.102 | 0.0237 | no binding
5 | B5 |  | 0.38 |  |  |  |  |  | 0.135 | 
6 | B6 | 0.729 |  | 346 | 2.79 | 0.637 |  |  |  | 
7 | B7 |  |  |  |  |  | no binding | 0.648 | 0.0282 | no binding
